The values below come from patent US20210355206A1 (Novartis, published 2021).

Assay [1] concerns the target T1, Mouse Epo (mouse, UniProt P07321 27-192).
T1 sequence: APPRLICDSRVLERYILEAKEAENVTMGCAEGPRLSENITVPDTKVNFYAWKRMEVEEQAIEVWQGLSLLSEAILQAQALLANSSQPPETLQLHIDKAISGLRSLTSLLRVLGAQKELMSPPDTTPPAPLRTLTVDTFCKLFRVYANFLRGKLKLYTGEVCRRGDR
Kind of assay: SET.
Description: (§1) In SET, a constant amount of antibody is incubated with different concentrations of antigen until equilibrium is reached. The concentration of free antibody in the equilibrated solution is determined by applying the solution on an antigen coated MSD™ plate (Meso Scale Discovery™) followed by incubation with an ECL-labeled secondary antibody and measurement of signal intensity. […] If a sufficient number of antigen concentrations in a matching range are available, the titration curve allows for a reasonable determination of the affinity, using the appropriate fit model.
(§2) Streptavidin-coated standard MSD plates (Meso-Scale Discovery, 384-well: MSD cat #L11 SA) were blocked with 25 μl incubation buffer at RT for 1 hr. […] Plates were washed 3× in TBST buffer. […] Plates were washed 3× in TBST buffer. 25 μl detection antibody was added (Anti-Human (Goat) Sulfo-TAG, 1:1000 in incubation buffer, MSD cat #R32AJ-1), and incubated at RT for 60 min. Plates were washed 3× in wash buffer, and 50 μl of 1× MSD Read buffer T was added (with surfactant, MSD cat #R92TC-1). Plates were read on a MSD Spector Imager 6000.

Assay [2] deals with T2, Rat Epo (rat, UniProt P29676 27-192).
T2 sequence: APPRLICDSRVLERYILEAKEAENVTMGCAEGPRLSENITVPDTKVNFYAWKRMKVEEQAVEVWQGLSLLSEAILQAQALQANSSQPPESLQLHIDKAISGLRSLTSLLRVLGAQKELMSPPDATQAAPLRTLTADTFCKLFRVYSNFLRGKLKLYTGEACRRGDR
Kind of assay: SET.
Description: as §1, §2

Assay [3] concerns the target T1, Mouse Epo. Kind of assay: SPR (Biacore T200), Fab captured by anti-human Fab, Epo as analyte, 25 C.
Description: (§3) Three flow cells were utilized for the method run. […] Both capture and binding steps were carried out on flow cells 2-4.
(§4) The resulting signals were adjusted by double referencing, thus subtracting the refraction index values from the reference flow cell and the binding step with no analyte. Data was collected at 10 Hz and analyzed using the Biacore® T100 Evaluation Software Version 1.1 (GE Healthcare). This program uses a global fitting analysis method for the determination of rate and affinity constants for each interaction.
The target in assay [4] is T2, Rat Epo. Described as above.
Description: as §3, §4
The target of assay [5] is T3, Rabbit Epo (rabbit, UniProt Q9GKA2 29-195, limits assumed).
T3 sequence: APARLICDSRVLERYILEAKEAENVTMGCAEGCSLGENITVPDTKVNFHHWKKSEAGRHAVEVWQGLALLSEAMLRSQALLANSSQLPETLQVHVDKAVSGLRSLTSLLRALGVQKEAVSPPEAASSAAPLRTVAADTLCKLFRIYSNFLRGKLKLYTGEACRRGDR
Kind of assay: solution equilibrium titration (SET), MSD ECL read-out, Fab with Epo titration.
Description: as §1, §2

Assay [6] deals with T1, Mouse Epo. The assay is described as above.
Description: as §1, §2
Assay [7] addresses T2, Rat Epo. The assay is described as above.
Description: as §1, §2
The target in assay [8] is T2, Rat Epo. Kind of assay: SET; rat Epo.
Description: as §1, §2
Assay [9] addresses T1, Mouse Epo. Kind of assay: SET; mouse Epo.
Description: as §1, §2
Assay [10] concerns the target T3, Rabbit Epo. Kind of assay: SPR (Biacore T200), Fab captured by anti-human Fab, Epo as analyte, 25 C.
Description: as §3, §4
For assay [11], the target named is T3, Rabbit Epo. Kind of assay: SPR (Biacore T200), Fab captured by anti-human Fab, Epo as analyte, 25 C; single datapoint.
Description: as §3, §4
In assay [12] the target is T1, Mouse Epo. The assay is described as above.
Description: as §3, §4
For assay [13], the target named is T2, Rat Epo. Described as above.
Description: as §3, §4
Assay [14] has as its target T1, Mouse Epo. Kind of assay: solution equilibrium titration (SET), MSD ECL read-out, Fab with Epo titration; single datapoint.
Description: as §1, §2
The target in assay [15] is T2, Rat Epo. Described as above.
Description: as §1, §2

Where only a bound is given, the exact number is not on record here.

B1: NVS4 (Fab, V domains shown)
VH: QVQLVQSGAEVKKPGASVKVSCKASGYTFTSYYMSWVRQAPGQGLEWMGWINPLKGNTNYAQKFQGRVTMTRDTSISTAYMELSRLRSEDTAVYYCAREGMYFDIWGQGTLVTVSS
VL: SYELTQPLSVSVALGQTARITCSGDSIGDKYVYWYQQKPGQAPVLVIYDTNKRPSGIPERFSGSNSGNTATLTISRAQAGDEADYYCQSWDLDFNTYVFGGGTKLTVLG
notes: Human FabCys format; also called Fab NVS4; derived from initial antibody 11317
For B1, the Kd is below 0.01 nM in assay [1]; below 0.01 nM in [2]; 0.0305 nM in [3]; 0.0344 nM in assay [4]; 28.7 nM in assay [5]; 0.0078 nM in [6]. Besides, in assay [7], the Kd was determined as 0.0127 nM.

B2: NVS2 (Fab, V domains shown)
VH: EVQLVQSGAEVKKPGESLKISCKGSGYSFTSYWIGWVRQMPGKGLEWMGWIDPYRSEIRYSPSFQGQVTISADKSISTAYLQWSSLKASDTAMYYCARVSSEPFDSWGQGTLVTVSS
VL: SYVLTQPPSVSVAPGKTARITCSGDKLGDHYAYWYQQKPGQAPVLVIYDDSKRPSGIPERFSGSNSGNTATLTISRVEAGDEADYYCATWTFEGDYVFGGGTKLTVLG
notes: Human FabCys format; also called Fab NVS2; anti-EPO Fab
On to B2, for which the Kd in assay [8] is below 0.02 nM; in assay [9], below 0.05 nM; in [10] it was 5.16 nM; in [3], 0.0449 nM; in assay [4], 0.0566 nM; in assay [5], 3.86 nM. Moreover, the Kd was determined as 0.037 nM in assay [6] and 0.0127 nM in [7].

B3: NVS3 (Fab, V domains shown)
VH: QVQLQQSGPGLVKPSQTLSLTCAISGDSVSSNTAAWNWIRQSPSRGLEWLGVIYYRSKWYNDYAVSVKSRITINPDTSKNQFSLQLNSVTPEDTAVYYCARSVPGGDPGLEHAFAYWGRGTLVTVSS
VL: SYVLTQPPSVSVAPGKTARITCSGDNLGTYYVEWYQQKPGQAPVLVIYDDSDRPSGIPERFSGSNSGNTATLTISRVEAGDEADYYCASFASWSDSVFGGGTKLTVLG
notes: Human FabCys format; also called Fab NVS3; derived from initial antibody 11380
Regarding B3, the Kd was 0.674 nM in assay [10]; 0.001 nM in assay [3]; 0.038 nM in [4]; 0.0399 nM in [5]; 0.0025 nM in [6]; 0.0012 nM in assay [7].

B4: NVS1 (Fab, V domains shown)
VH: QVQLVQSGAEVKKPGSSVKVSCKASGGTFRSYAISWVRQAPGQGLEWMGGIDPISGFADYAQKFQGRVTITADESTSTAYMELSSLRSEDTAVYYCARELYYPGTWMAVMAYWGRGTLVTVSS
VL: SYVLTQPPSVSVAPGKTARITCSGDNIPEYYVHWYQQKPGQAPVLVIYRDNERPSGIPERFSGSNSGNTATLTISRVEAGDEADYYCQVFDESSWHWVFGGGTKLTVLG
notes: Human FabCys format (VH-CH1 ending EPKSC, lambda light chain); also called Fab NVS1; derived from initial antibody 11319
Consider B4, for which the Kd turned out to be 0.661 nM in assay [11]; 0.022 nM in assay [12]; 0.041 nM in assay [13]; 0.0161 nM in [14]; 0.0054 nM in assay [15].
